Test results from the nanobody polyreactivity screen of Harvey et al. (2022).

Assay: yeast display, Sf9 membrane polyspecificity reagent, FACS + sequencing; frameworks hold sequencing errors
In short: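 Nanobodies came from a synthetic yeast display library in Saccharomyces cerevisiae BJ5465, induced with galactose for 36–48 hours and stained for 1 hour at 4 °C with 10% biotinylated, detergent-solubilized Sf9 membrane reagent. Cells were enriched on streptavidin microbeads and then FACS-sorted, with low and high (top ~1%) gates set on anti-HA fluorescence for expression and streptavidin fluorescence for reagent binding. Each polyreactivity label reflects the gate a clone came from. Genes were amplified by colony PCR, sequenced by MiSeq 2 × 250 and filtered by CDR length.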
In the case of “QVQLVESGGGLLQAGGSLRLSCAASGRTFTNSAMGWYRQEPGKERELVAGISSSGGRTYYAVSVKGRFTISRDNAMNTVYLQMNSLKAEDTAVYYCAAQHSRVYRRMDYWGQGTQVSVSS”, the “polyreactivity (PSR sort gate)” value is reported as “high polyreactivity”.
In the case of “QVQLVESGGGLLQAGGSLRLSCAASGRTLGIYAMGWYRQAPWKERELVAAITLSGSDTYYADSVKGRFTISRDNAKNTVYLQMNSLKPEDTAVYDCAAKTYGGYGKYGYWGQGTQVTVSS”, the “polyreactivity (PSR sort gate)” value is reported as “low polyreactivity”.
For “QVQLVESGGGLLQAGGSLRLSCAASGSTFNKYTMGWYIKAPGKERELVAAITSGDSTYYADSVKGRFTISRDNAKYTVYLQMNSLKTEDTAVYYCAKSLRAYRHVIYGKPFYSWGQGTQVTVSS”, the “polyreactivity (PSR sort gate)” value was “low polyreactivity”.
With “QVQLVESGGGLLQAGGSLRLSCAASGSTFYDNAMGWYRQAPGKERELVAAISYSGASTYYADSVKGRFTISRDNEKNTVYLQMNSLKPEDTAVYYCAKTFYSLYWGQGTQVTGSS” the “polyreactivity (PSR sort gate)” value was “low polyreactivity”.
In the case of “QVQLVESGGGLLQAGGSLRLSCAASGSTFYKYAMGWYRHAPRKERELVASISRSGRSTYYADSVKGRFTISRDNAKNTVYLQMNSLKPEDTAVYYCAATWRQHPGSMGYWGQGTQVTVSS”, the “polyreactivity (PSR sort gate)” value is reported as “high polyreactivity”.
For “QVQLVESGGGLLQAGGSLRLSCAASGSTYIGNAMGWYRQAPGKERELVAAITSGGSTNYADSVKGRFTISRDNAKNTVYLQKNSLKPEDTAVYYCAKPSRWGWTGFYAYDYWGQGTQVTVSS”, the “polyreactivity (PSR sort gate)” value was “low polyreactivity”.
In the case of “QVQLVESGGGLLQAGGSLRLSCASSGRTFARYVMGWYRQAPGKERELVAAITRSGGSTYYADSVKGRFTISRDNAKNTVYLQMNSMKPEDTAVYYCAATLRWGLYNTFYSTFNVSYYYWGQGTQVTVSS”, the “polyreactivity (PSR sort gate)” value is reported as “high polyreactivity”.
In the case of “QVQLVESGGGLLQAGGSLRLSFAASGFTFGRYAMGWYRQAPGKERELVAAISTSGGRTYYADSVKGRFTISRDNAKNTVYLQMNSLKPEDTAVYYCAAEQRRFTGYDYWGQGTQVTVSS”, the “polyreactivity (PSR sort gate)” value is reported as “high polyreactivity”.
In the case of “QVQLVESGGGLLQAGGSLRVSCAASGSIIFFYAMGWYRQAPGKERELVAAISKSPSSTYYADSVKGRFTISRDNAKNTVYLQMNSLKPEDTAVYYCNTGYSGIQYYYWGQGTQVTVSS”, the “polyreactivity (PSR sort gate)” value is reported as “low polyreactivity”.
With “QVQLVESGGGLLQAGGSLSLSCAASGFTFIGYAMGWYRQATGKEREFVAAISWSGGRTYYADSVKGRFTISRDNAKNTVYLQMNSLKPEDTAVYYCAARGSRKPDWGLGYWGQGTQVTVSS” the “polyreactivity (PSR sort gate)” value was “high polyreactivity”.
For “QVQLVESGGGLLQAGGSLSLSCAASGFTFNRNAMGWYRQAPGKERELVAAISWSGGSTYYADSVKGRFTISRDNAKNTVYLQMNSLKPEDTAVYYCAKGYRRVYSMDWGQGTQVTVSS”, the “polyreactivity (PSR sort gate)” value was “low polyreactivity”.
With “QVQLVESGGGLLQAGGSQSLSCAASGIISFSNTMGWYIQAPGKERELVAAIDSGGDDTYYADSVKGRFTISRDNAKNSVYLQMNCLKAEDSAVDYCAKDAFFTEIAIRDQIISHHYYWGHGTQVTVSS” the “polyreactivity (PSR sort gate)” value was “low polyreactivity”.
In the case of “QVQLVESGGGLLQAGVTLRLSCAPSGFTQDSYSMGWYRQAPGKERELVARIRWSGGSTYYADSVKGRFTISRDNAKNTVYLQMNSLKPEDKAVYYCAADRPYYFLPYSTYTNYDSWGQGTQVTVSS”, the “polyreactivity (PSR sort gate)” value is reported as “low polyreactivity”.
In the case of “QVQLVESGGGLVEAGGSHRLTCAASGSTFGWYPIGWYRQAPGTERELVAGINSRGGSTYYADSVKGRFTISRDNAQNTVYLQMNSLKPEDTAVYYCNTVWASRRAHDYWGQGTQVTVSS”, the “polyreactivity (PSR sort gate)” value is reported as “high polyreactivity”.
In the case of “QVQLVESGGGLVEAGGSLRLRCAASGISYRYYAMGWYRQAPGKERELVAAITYRGGTTYYADSVKGRFKISRDKEKNTVYLQMNSLKPEDTAVYYCATDVNSYGYYYWGQGTQVTVSS”, the “polyreactivity (PSR sort gate)” value is reported as “high polyreactivity”.
With “QVQLVESGGGLVEAGGSLRLSCAASASISGRYAMGSYRQAPGKERELVAAISWIGGSTYYADSVKGRFTISRDNAKNTVYLQMNSLKPEDTAVYYCNVTIDTRTHPLLVVFYGYDYWGQGTQVTVSS” the “polyreactivity (PSR sort gate)” value was “low polyreactivity”.
For “QVQLVESGGGLVEAGGSLRLSCAASGGIFPVNAIGWYRQAPGKERELVATITYDGANTYYADSVKGRFTISRDNAKNTVYLQMNRLKPEDTAVYYCAKDRLSFYGYISYIGYGYDYWGQGTQVTVSS”, the “polyreactivity (PSR sort gate)” value was “low polyreactivity”.
With “QVQLVESGGGLVEAGGSLRLSCAASGRIFRKYTMGWYRQAPGKERELVAAISRNGGDTYYADSVKGRFTISRDNAKNTVYLLMNSLKPEDTAVYYCNARTPTDSTHFDYWGQGTQVSVSS” the “polyreactivity (PSR sort gate)” value was “low polyreactivity”.
In the case of “QVQLVESGGGLVEAGGSLRLSCAASGRIFWGNAMGWYRPAPGKERELVAAITRGGSTNYADSVKGRFTISRDNAKNTVYLQMKSLKPEDTAVYYCAARTRSRGNSWTYDYWGQGTQVTVSS”, the “polyreactivity (PSR sort gate)” value is reported as “high polyreactivity”.
In the case of “QVQLVESGGGLVEAGGSLRLSCAASGSIFDDYAMGWYRQAPGEERELVAAITWNGGSTYADSVKGRFTISRDNAKNTVYFQMNSLKPEDTAVYYSAADYFVYWYYGYGYWGQGTQVTVSS”, the “polyreactivity (PSR sort gate)” value is reported as “low polyreactivity”.
With “QVQLVESGGGLVEAGGSLRLSCAASGSTFRYYAMGWYRQAPGKERELFAAITWSGGSTNYADSVKGRFTISRDNAKNTFYLQMNSLKPEDTAVYYCNARYLYRHSRYARYDSWGQGTQVTVSS” the “polyreactivity (PSR sort gate)” value was “high polyreactivity”.
For “QVQLVESGGGLVEAGGSLRLSCAATGRTIRAYAMGWYRPEPGKERELVASISSGGSTKYADSVKGRFTISRDNAKNTVYLQMNSLKPEDTAVYFCAADRLLYGVDYWGQGTEVTVSS”, the “polyreactivity (PSR sort gate)” value was “low polyreactivity”.
For “QVQLVESGGGLVEAGGSLRLSCAAYGFIFSHNTMGCYRQAPGKERELVAGISWSGGNTYYSDSVKGRFTISRDNAKNTGYLQMNRLKPEDTAVYSFNVRFVTGYRYRYGDDYWGQGTQVTVSS”, the “polyreactivity (PSR sort gate)” value was “low polyreactivity”.
In the case of “QVQLVESGGGLVEEGGSLRLSCAASGSIFYRNDMGWYRQAPGKERELVAAISWSGGRTYYADSVKGRFTISRDNAKNTVYLQMNSLKPEDTAVYYCAAFRHRQSSDNGYDYWGQGTQVTVSS”, the “polyreactivity (PSR sort gate)” value is reported as “high polyreactivity”.
In the case of “QVQLVESGGGLVHAGCSLRLSCAAYGRNFYRYAMGWYRQAPGKERALVAAISGSVGSTYADTEKGRFTSSRDNAKNTVYLQMNSLKPEDTAVYYCARESYRRYGAYDYWGQGTQVTESS”, the “polyreactivity (PSR sort gate)” value is reported as “low polyreactivity”.
With “QVQLVESGGGLVHAGGILRLSCAASGRTFRYYTMGWYRQEPGKERELVAAISSGGGNTYYADSVKGRFTISRDNAKNTVYLQMNSLKPEDTAVYYCAVPWYTRESGAYDYWGQGSQVTVSS” the “polyreactivity (PSR sort gate)” value was “high polyreactivity”.
In the case of “QVQLVESGGGLVHAGGRLRLSCAASGRTFGFYTMGWYRQPPGKERELVAGISRGGSTTYADSVKGRFTISRDNAKNTVYLQMNSLKPEDTAVYYCNADRSHYWLPYGVRFDYWGQGSQVTVSS”, the “polyreactivity (PSR sort gate)” value is reported as “low polyreactivity”.
With “QVQLVESGGGLVHAGGRLRLSCAASGRTFGPYVMGWYRQSPGKERELVASISSADSTYYADSVKVRFTFSRDNAKNTFYLQMNSLKPEDTAVYYCAAEWYDYLYRMDYWGQGTQVTVSS” the “polyreactivity (PSR sort gate)” value was “low polyreactivity”.
In the case of “QVQLVESGGGLVHAGGRLRLSCAASGSTFSPYAMGWYRQPPGKERELVAAITRSGGRTYYADSVKGRFTISRDNAKNTVYLQMNSLKPEDTAVYYCAARNYKPYGYYRIYDSWGQGTQVTVSS”, the “polyreactivity (PSR sort gate)” value is reported as “high polyreactivity”.
For “QVQLVESGGGLVHAGGSIRLSCAASGRIFDSNAMGRYRQAPGKEREVVAAITYSGGGTFYADSVKGRFTSSRDNAKNTVYLQMNCLKPEDTAVYYCNKLPHYFGPVYWFKGDDGYWGQGTQVTVTS”, the “polyreactivity (PSR sort gate)” value was “high polyreactivity”.
For “QVQLVESGGGLVHAGGSLLLSCDATGISLVRYSMGWYRQAPGKELELVAAISGSGGSTRYADSVKGRFTISRDNAKNTVYLQMNSMIPEDSAVYYCAARGAGPLDNHYSWGQGKQVTVSS”, the “polyreactivity (PSR sort gate)” value was “high polyreactivity”.
In the case of “QVQLVESGGGLVHAGGSLRLSCAASAFIFLFYTMGSYRQAPGKERELVAAITSVGNTNYADSVKGRFSISRDNAKNTVFLQINSLKPEDTAVYYCAADTTDPGGAYQLMDYWGQGTQVTLSS”, the “polyreactivity (PSR sort gate)” value is reported as “low polyreactivity”.
With “QVQLVESGGGLVHAGGSLRLSCAASGFIFDTYLMGRYRQAPGTERELVAAISRTGGRTYYADSVKGRFTISRDNAKYTVYLQMNSLNPEDTAVYYCNRAPHIAPEDYDYWGQGTQVTVSS” the “polyreactivity (PSR sort gate)” value was “high polyreactivity”.
With “QVQLVESGGGLVHAGGSLRLSCAASGFTFAQNAMGWYRQATGKEREWVAAITRSGARTYYADSVKGRFTISRDNAKNTVYLLMNSLKPEDTPVYYCNRDASRKYGYWGQGTQVTVSS” the “polyreactivity (PSR sort gate)” value was “high polyreactivity”.
In the case of “QVQLVESGGGLVHAGGSLRLSCAASGFTFGNAMGWYRQAPGKERELVAAITVNGGTTNYADSVKGRFTISRDNAKNTVYLQMNSLKPEDTAVYSCNVDTSYGPAGDYWGQGTQVTVSS”, the “polyreactivity (PSR sort gate)” value is reported as “low polyreactivity”.
For “QVQLVESGGGLVHAGGSLRLSCAASGFTFGTYAMGWYRQAPGKEMELVSAISWKGGSTFYADSVKGRFTISRDNAKNTVYLQMNSLKPEDTAVYYCSKLLRRGGHRVFTYDYWGQGTQVTVSS”, the “polyreactivity (PSR sort gate)” value was “high polyreactivity”.
With “QVQLVESGGGLVHAGGSLRLSCAASGFTFPGYAMGWYRQAPGKERELVAAISRGGAGTYYADSVKGRFTISRDNAKNTVYLQMHSLKPEDTAFYDCAAATDNPSLFQDMYYWGQGTQLTVSS” the “polyreactivity (PSR sort gate)” value was “high polyreactivity”.
For “QVQLVESGGGLVHAGGSLRLSCAASGFTIERYAMGWYRQAAGKERELVAVISTSGGSTYYADSVNWRYTITRDNAKNSVYLQMNSLKPEDTAVYYCAKDGSSRGDYHFGWGYYYWGQGTQVTVSS”, the “polyreactivity (PSR sort gate)” value was “low polyreactivity”.
For “QVQLVESGGGLVHAGGSLRLSCAASGGIFGYYTMGWYRQAPGKERELVAAITWRGSTYYADSVKGRFTISRDNAKNTVYLQMNSLKPEDTAVYYCAARYYSPYGYWGQGTQVTVSS”, the “polyreactivity (PSR sort gate)” value was “high polyreactivity”.
In the case of “QVQLVESGGGLVHAGGSLRLSCAASGGNFGKYAMGGYRQAPGKERELVAAITWNGGRTYYADSVKGRFTLSRDNAKNTVYLQMNSLKPEDSAVNYCNARNSHRYVYWGQGTQVTVSS”, the “polyreactivity (PSR sort gate)” value is reported as “high polyreactivity”.
In the case of “QVQLVESGGGLVHAGGSLRLSCAASGITFVRYMGWYRQAPGKERELVAAISASGGSTYYADSVKGRFTISRDNAKNTVYLQLNCLKPEDTAVYYCRFLRVGSLTMDYWGQGSQVTVSS”, the “polyreactivity (PSR sort gate)” value is reported as “high polyreactivity”.
In the case of “QVQLVESGGGLVHAGGSLRLSCAASGITFYEYTMGWYRQAPGKERELVADIDFSGDSTYYSDSVKGRFTISRDYAKNTVYLQMNSLKPEDTAVYYCAVEIIYWWYIYEYWGQGSQVTVSS”, the “polyreactivity (PSR sort gate)” value is reported as “high polyreactivity”.
With “QVQLVESGGGLVHAGGSLRLSCAASGLTFYYYDMGWYRQAPGKERELVAAITRRGGSTYYADSVKGRFTISRDNAKNTVYLQMNSLKPEDTAVYYCNALSRTVSHEADDYWGQGTHVTVSS” the “polyreactivity (PSR sort gate)” value was “high polyreactivity”.
